± gives the uncertainty stated by the source.
Test: self-splicing fitness, log relative to wild type (ln ratio); higher = more splicing; Tetrahymena group I intron in knt gene, E. coli kanamycin selection, DiMSum; sequences stand for … in CUCUCU…GGAGGGAAAAGUUAUCAGGCAUGCACCUGGUAGCUAGUCUUUAAACCAAUAGAUUGCAUCGGUUUAAAAGGCAAGACCGUCAAAUUGCGGGAAAGGGGUCAACAGCCGUUCAGUACCAAGUCUCAGGGGAAACUUUGAGAUGGCCUUGCAAAGGGUAUGGUAAUAAGCUGACGGACAUGGUCCUAACCACGCAGCCAAGUCCUAAGUCAACAGAUCUUCUGUUGAUAUGGAUGCAGUUCACAGACUAAAUGUCGGUCGGGGAAGAUGUAUUCUUCUCAUAAGAUAUAGUCGGACCUCUCCUUAAUGGGAGCUAGCGGAUGAAGUGAUGCAACACUGGAGCCGCUGGGAACUAAUUUGUAUGCGAAAGUAUAUUGAUUAGUUUUGGAGUACUCGUGGUCG
Method in brief: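 A randomised library covering all eight P1ex-region intron nucleotides was built with the intron in the knt kanamycin-resistance gene on pET-22b(+) and held in E. coli BL21(DE3). Cells were grown overnight at 37°C or 30°C on LB agar, with or without 25 μg/mL kanamycin, plus 100 μg/mL carbenicillin, 50 μM IPTG and 0.2% rhamnose, and pooled colonies were amplicon-sequenced on an Illumina HiSeq 2500. DiMSum fitness is the error-weighted combination of wild-type-normalised replicate fold changes, kanamycin versus none.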

Row | Sequence | self-splicing fitness (ln) (30 °C) | self-splicing fitness (ln) (37 °C)
1 | AUAGAGCAAUAUUACGCGCU | -2.64 ± 0.29 | -0.717 ± 0.24
2 | CAAAAGCAAUAUUACGAGGG | -2.77 ± 0.14 | -2.53 ± 0.21
3 | GACCAGCAAUAUUACGCGUC | -4.75 ± 0.38 | -2.54 ± 0.22
4 | UAAAAGCAAUAUUACGCCCA | -0.0418 ± 0.15 | 0.358 ± 0.19
5 | CUAAAGCAAUAUUACGCAAC | -3.32 ± 0.29 | -3.03 ± 0.38
6 | GUUUAGCAAUAUUACGCAGG | -1.36 ± 0.2 | -2.04 ± 0.34
7 | UUACAGCAAUAUUACGUUAC | -3.56 ± 0.28 | -3.03 ± 0.27
8 | GAACAGCAAUAUUACGACGC | -0.0786 ± 0.067 | 0.151 ± 0.088
9 | UCCUAGCAAUAUUACGCGAC | -3.46 ± 0.32 | -1.49 ± 0.31
10 | GAGAAGCAAUAUUACGGGGC | -3.04 ± 0.19 | -3.05 ± 0.23
11 | UAUAAGCAAUAUUACGGUCC | -0.922 ± 0.44 | –
12 | GAGUAGCAAUAUUACGAUUU | -0.387 ± 0.086 | -0.312 ± 0.1
13 | GCUUAGCAAUAUUACGUUAU | -1.38 ± 0.093 | -0.881 ± 0.12
14 | CCUGAGCAAUAUUACGUAGC | -4.49 ± 0.27 | -1.77 ± 0.16
15 | AGAUAGCAAUAUUACGAUGU | -0.932 ± 0.079 | -0.112 ± 0.086
16 | GCUCAGCAAUAUUACGAUCG | -1.02 ± 0.1 | 0.77 ± 0.13
17 | AUUAAGCAAUAUUACGGCCU | -0.548 ± 0.1 | -0.318 ± 0.12
18 | AGAUAGCAAUAUUACGGUGC | -4.21 ± 0.31 | -0.624 ± 0.15
19 | UAAGAGCAAUAUUACGUGGU | -3.74 ± 0.24 | -2.57 ± 0.19
20 | UAUUAGCAAUAUUACGGGCU | -3.47 ± 0.27 | -2.3 ± 0.23
21 | GGGCAGCAAUAUUACGUUGC | -3.77 ± 0.16 | -1.95 ± 0.19
22 | UUAGAGCAAUAUUACGAGGG | – | -2.64 ± 0.44
23 | CGGGAGCAAUAUUACGCGAA | -2.47 ± 0.25 | -1.9 ± 0.23
24 | AGUAAGCAAUAUUACGUCUA | -0.96 ± 0.16 | -0.0188 ± 0.15
25 | ACGCAGCAAUAUUACGUCUA | -1.55 ± 0.096 | -1.22 ± 0.08
26 | ACCUAGCAAUAUUACGGGGA | -1.11 ± 0.08 | -0.794 ± 0.096

Row | Sequence | self-splicing fitness (ln) (30 °C) | self-splicing fitness (ln) (37 °C)
27 | AGUGAGCAAUAUUACGUUCC | -4 ± 0.34 | -1.47 ± 0.16
28 | UGUCAGCAAUAUUACGACCU | -0.114 ± 0.17 | 0.566 ± 0.17
29 | AAGCAGCAAUAUUACGGGCC | -1.76 ± 0.15 | -1.53 ± 0.15
30 | CCGGAGCAAUAUUACGGAGC | -3.73 ± 0.48 | -2.55 ± 0.44
31 | AACUAGCAAUAUUACGCUUC | -3.74 ± 0.33 | -1.68 ± 0.2
32 | ACGUAGCAAUAUUACGCAGG | -3.67 ± 0.24 | 0.325 ± 0.1
33 | GAGCAGCAAUAUUACGCUCA | -2.14 ± 0.2 | -1.91 ± 0.16
34 | AACAAGCAAUAUUACGAGGG | -3 ± 0.11 | -1.35 ± 0.15
35 | GCGGAGCAAUAUUACGAGAC | -2.85 ± 0.38 | –
36 | GUCAAGCAAUAUUACGUCGC | -3.74 ± 0.21 | -2.13 ± 0.19
37 | GAGAAGCAAUAUUACGUUAU | -3.33 ± 0.19 | -2.47 ± 0.16
38 | GAAGAGCAAUAUUACGUAGA | -4.54 ± 0.42 | -2.21 ± 0.25
39 | CGGAAGCAAUAUUACGUAGC | -2.64 ± 0.38 | -3.47 ± 0.46
40 | AACAAGCAAUAUUACGGAUC | -1.6 ± 0.093 | -0.302 ± 0.11
41 | AUCGAGCAAUAUUACGUCGA | -2.83 ± 0.19 | -2.03 ± 0.19
42 | AUGCAGCAAUAUUACGGCAA | 0.0857 ± 0.12 | 0.0922 ± 0.12
43 | GCCUAGCAAUAUUACGCCGU | -1.01 ± 0.15 | -0.292 ± 0.13
44 | AGGGAGCAAUAUUACGGGAU | -3.19 ± 0.46 | -1.48 ± 0.28
45 | ACACAGCAAUAUUACGCAGU | -3.84 ± 0.14 | -2.73 ± 0.12
46 | UAGUAGCAAUAUUACGGCCC | -2.09 ± 0.17 | -1.92 ± 0.37
47 | AUAGAGCAAUAUUACGCAGC | -2.33 ± 0.45 | –
48 | AUAAAGCAAUAUUACGCAGC | -3.55 ± 0.4 | -1.04 ± 0.28
49 | CUCAAGCAAUAUUACGUUGC | -4.05 ± 0.29 | -2.39 ± 0.21
50 | UAAGAGCAAUAUUACGGGUA | -2.57 ± 0.2 | -1.59 ± 0.17
51 | CCGGAGCAAUAUUACGUAGG | -3.55 ± 0.26 | -2.66 ± 0.3
52 | UCUGAGCAAUAUUACGAGGU | -3.18 ± 0.23 | –

Row | Sequence | self-splicing fitness (ln) (30 °C) | self-splicing fitness (ln) (37 °C)
53 | UAGGAGCAAUAUUACGAGAA | -3.23 ± 0.44 | -2.68 ± 0.42
54 | UGAUAGCAAUAUUACGCCAG | -1.59 ± 0.23 | -0.994 ± 0.49
55 | AAACAGCAAUAUUACGGGCA | -1.86 ± 0.1 | -1.24 ± 0.1
56 | UAGUAGCAAUAUUACGGACA | -1.04 ± 0.17 | -0.115 ± 0.19
57 | GAAAAGCAAUAUUACGUAAU | -1.78 ± 0.066 | -1.47 ± 0.087
58 | AUCGAGCAAUAUUACGAGAG | -3.84 ± 0.39 | -1.14 ± 0.19
59 | AUCGAGCAAUAUUACGGAGU | -3.83 ± 0.31 | -2.42 ± 0.23
60 | AGCUAGCAAUAUUACGGCGA | -0.581 ± 0.081 | 0.0269 ± 0.12
61 | CACUAGCAAUAUUACGACGC | -2.52 ± 0.12 | -1.02 ± 0.13
62 | CAUUAGCAAUAUUACGAAGC | -2.81 ± 0.32 | -2.44 ± 0.49
63 | CUUUAGCAAUAUUACGUGCU | – | -2.59 ± 0.41
64 | GGUGAGCAAUAUUACGAUCU | -0.331 ± 0.18 | -0.809 ± 0.27
65 | UCCAAGCAAUAUUACGGUAU | -2.72 ± 0.14 | -2.02 ± 0.12
66 | ACCGAGCAAUAUUACGACGC | -0.285 ± 0.089 | -0.16 ± 0.11
67 | UUCGAGCAAUAUUACGUACA | -2.27 ± 0.22 | -1.81 ± 0.15
68 | CACUAGCAAUAUUACGAUUG | -0.641 ± 0.07 | -0.457 ± 0.081
69 | UGCCAGCAAUAUUACGUUGG | -3.91 ± 0.18 | -2.22 ± 0.15
70 | AUAUAGCAAUAUUACGUUGA | -2.63 ± 0.22 | -2.53 ± 0.26
71 | UACUAGCAAUAUUACGGUGU | -3.74 ± 0.23 | -2.65 ± 0.29
72 | UACAAGCAAUAUUACGCAAU | -3.44 ± 0.21 | -2.47 ± 0.23
73 | UAUUAGCAAUAUUACGUAAC | -1.8 ± 0.19 | -1.09 ± 0.2
74 | CGGCAGCAAUAUUACGUGUA | -3.77 ± 0.25 | -2.21 ± 0.14
75 | UGUUAGCAAUAUUACGCCCU | -0.0997 ± 0.17 | 0.532 ± 0.18
76 | CGCUAGCAAUAUUACGGAUG | -1.13 ± 0.075 | -0.108 ± 0.096
77 | GACCAGCAAUAUUACGCUGU | -3.34 ± 0.15 | -1.54 ± 0.095
78 | UGUCAGCAAUAUUACGCAUU | -1.74 ± 0.09 | -0.133 ± 0.092
